± gives the standard deviation.
Assay: protein stability index of a GFP-peptide fusion (GPS, HEK-293T) (PSI 1-6); higher = more stable
[1] = treatment: DMSO, c terminus: a fixed tail appended
[2] = treatment: MLN4924 1 uM, 8 h, c terminus: a fixed tail appended
[3] = treatment: DMSO, c terminus: native
[4] = treatment: MLN4924 1 uM, 8 h, c terminus: native
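Note: 24-mer peptide tiles fused after GFP, lentivirally expressed, FACS-sorted into six equal bins by GFP/DsRed ratio, decoded by Illumina sequencing, PSI is the read-weighted mean bin number.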

## EGGDESDLSSESSIKKKFLKRKGK [EHMT1]
[1]
  protein stability index: 5.54 ± 0.22
[2]
  protein stability index: 5.34 ± 0.56

## YLDKAPPPGLPAETIKDLMRQFLR [CDK4]
[1]
  protein stability index: 4.45 ± 0.2
[2]
  protein stability index: 4.23 ± 0.39

## KKQAGRPKGSKGKEKDSPFKPKLY [RBBP5]
[1]
  protein stability index: 3.74 ± 0.26
[2]
  protein stability index: 3.91 ± 0.28

## QLIYNHITTRVNSEQEHFLIVPFG [ADD1]
[1]
  protein stability index: 2.41 ± 0.27
[2]
  protein stability index: 2.26 ± 0.08

## APDFVGDILWEHLEQMIKENQEKT [ETS2]
[1]
  protein stability index: 4.44 ± 0.13
[2]
  protein stability index: 4.58 ± 0.14

## VRERILGADNIDVSHPIIYRGAVY [FEM1B]
[1]
  protein stability index: 2.13 ± 0.29
[2]
  protein stability index: 2.57 ± 0.32

## VIAKWDYTAQQDQELDIKKNERLW [NCK2]
[1]
  protein stability index: 3.28 ± 0.093
[2]
  protein stability index: 3.4 ± 0.32

## DSYCDALTRPEPVHEFCAGRECQP [ADAMTSL2]
[1]
  protein stability index: 4.86 ± 0.1
[2]
  protein stability index: 4.57 ± 0.29

## ELSGAPRCHTVPCAGSTALQEPGE [PXN]
[1]
  protein stability index: 4.9 ± 0.28
[2]
  protein stability index: 5.05 ± 0.32

## KPYNCLQCLDKTNESALVKEKELS [MTUS2]
[1]
  protein stability index: 4.74 ± 0.14
[2]
  protein stability index: 4.59 ± 0.23

## RTPLMYCVLADRLDCADALLKAGA [INVS]
[1]
  protein stability index: 2.16 ± 0.35
[2]
  protein stability index: 2.08 ± 0.15

## SLFSPVTEDSPLGTVVALLNVHDL [PCDHGA10]
[1]
  protein stability index: 2.31 ± 0.2
[2]
  protein stability index: 2.32 ± 0.3

## LALYVLFLADEEFDVVVCDQVSAC [ALG2]
[1]
  protein stability index: 2.92 ± 0.44
[2]
  protein stability index: 2.59 ± 0.59

## RGELSARQMHLARFLRMLLRLADE [RAD51]
[1]
  protein stability index: 2.2 ± 0.27
[2]
  protein stability index: 2.42 ± 0.4

## YSIGRSVEGRHLYVLEFSDHPGIH [CPN1]
[1]
  protein stability index: 2.07 ± 0.23
[2]
  protein stability index: 2.07 ± 0.12

## ILNSVEKYDPHTGHWTNVTPMATK [KLHL12]
[1]
  protein stability index: 3.15 ± 0.29
[2]
  protein stability index: 3.43 ± 0.44

## PLTRLGQLKACTNFDDILNVCDDY [KCNG1]
[1]
  protein stability index: 3.18 ± 0.29
[2]
  protein stability index: 3.34 ± 0.23

## QCKDALEIYKRFLTRMTRVSEFLK [SNAP91]
[1]
  protein stability index: 2.77 ± 0.9
[2]
  protein stability index: 2.51 ± 0.24

## HIGHVGWDPNTGFDLNNLDPELKN [WASL]
[1]
  protein stability index: 4.42 ± 0.24
[2]
  protein stability index: 4.47 ± 0.32

## DGGALLGVLQYRGAELHLQPLEGG [ADAMTS4]
[1]
  protein stability index: 2.06 ± 0.94
[2]
  protein stability index: 2.52 ± 0.73

## VQGLEGIKMAMVACGDAFTVAIGA [NEK8]
[1]
  protein stability index: 2.79 ± 0.71
[2]
  protein stability index: 2.95 ± 0.46

## ADIFRIYAPEAPYTSPDKLKDIFM [PDS5B]
[1]
  protein stability index: 2.06 ± 0.11
[2]
  protein stability index: 2.1 ± 0.21

## PTFKSFEERVETTVTSLKTKVGGT [TPD52L1]
[1]
  protein stability index: 4.64 ± 0.25
[2]
  protein stability index: 4.65 ± 0.033

## DNAVQGLRRHEILQWVLQTDSQQ [LRRC59]
[3]
  protein stability index: 3.37 ± 0.2
[4]
  protein stability index: 3.44 ± 0.24

## KETEERTDGERVAEVAPEERENVA [SDE2]
[1]
  protein stability index: 5.64 ± 0.17
[2]
  protein stability index: 5.33 ± 0.42

## TGEKPYQCNICGKCFSCNSNLHRH [ZNF263]
[1]
  protein stability index: 4.03 ± 0.2
[2]
  protein stability index: 4.52 ± 0.26

## MTVEEIYKDRQKFSEQVFKVASSD [FLOT1]
[1]
  protein stability index: 3.83 ± 0.21
[2]
  protein stability index: 3.61 ± 0.31

## SEADPQALLQAMKDLDGMDADILG [FBF1]
[1]
  protein stability index: 5.28 ± 0.25
[2]
  protein stability index: 5.16 ± 0.35

## QRLEEQERRHREEKERRKKQQWEI [RSPH3]
[1]
  protein stability index: 4.45 ± 0.28
[2]
  protein stability index: 4.54 ± 0.31

## KPGKGADLSKPPCRKAKEIRKERK [ATE1]
[1]
  protein stability index: 4.65 ± 0.44
[2]
  protein stability index: 5.04 ± 0.3

## LTPGFSDNAIMLFSPDFTLRNTLK [FAN1]
[1]
  protein stability index: 2.4 ± 0.3
[2]
  protein stability index: 2.65 ± 0.54

## EFQERARKRIRTYLKSCRRMKKNG [NOL4L]
[1]
  protein stability index: 3.31 ± 0.19
[2]
  protein stability index: 3.19 ± 0.23

## PEEKIWEELSVLEVFEGREDSILG [MAGEA3]
[1]
  protein stability index: 4.6 ± 0.44
[2]
  protein stability index: 4.67 ± 0.11

## ARVKAFNKTGVSPYSKTLVLQTSE [TRIM9]
[1]
  protein stability index: 3.2 ± 0.28
[2]
  protein stability index: 3.34 ± 0.21

## RYADLEAVNRARRPLARPIKPNEI [RHOBTB2]
[1]
  protein stability index: 3.77 ± 0.21
[2]
  protein stability index: 3.7 ± 0.22

## HNQKVHMHMVDLMSSIICEGDTVS [PDS5B]
[1]
  protein stability index: 2.46 ± 0.17
[2]
  protein stability index: 2.64 ± 0.26

## GRYRDARMNDLHYLNLDTWEWNEL [KLHDC2]
[1]
  protein stability index: 2.86 ± 0.24
[2]
  protein stability index: 2.88 ± 0.25

## KARDWFQGHLRRLRSRYSVASFKF [MYORG]
[1]
  protein stability index: 2.21 ± 0.33
[2]
  protein stability index: 2.15 ± 0.29

## DVKKLEEAGFHTVEAVAYAPKKEL [RAD51]
[1]
  protein stability index: 4.73 ± 0.2
[2]
  protein stability index: 4.91 ± 0.078

## CQRSRYRDSLTQPDEEPMHYGNIM [RSPH3]
[1]
  protein stability index: 3.37 ± 0.39
[2]
  protein stability index: 3.45 ± 0.3

## LNKKLKSYSLSRKKIVHYTCFDQR [CDC14A]
[1]
  protein stability index: 2.39 ± 0.26
[2]
  protein stability index: 2.35 ± 0.3

## SSFNFFVFFFIFFVQDVLFVLQAI [SCAMP3]
[1]
  protein stability index: 3.17 ± 0.26
[2]
  protein stability index: 3.18 ± 0.28

## WNDAPCDKTFLFICKRPYVPSEP [CD207]
[3]
  protein stability index: 1.99 ± 0.96
[4]
  protein stability index: 2.13 ± 0.13

## MTTHPLTNNNIKQRLIKKVQEAVL [GOLPH3]
[1]
  protein stability index: 2.79 ± 0.65
[2]
  protein stability index: 2.65 ± 0.59

## DLKPENIMLLDKNVPNPRIKLIDF [DAPK3]
[1]
  protein stability index: 2.79 ± 0.084
[2]
  protein stability index: 2.93 ± 0.21
